The results in this text go back to patent US20050069869A1 (UNIVERSITY OF MASSACHUSETTS, published 2005).

For assay [1], the target named is SARS-CoV S protein of the virus (Urbani strain; virions and infected Vero cell extracts) (SARS-CoV, UniProt P59594 15-1190). Put plainly: cell-based or functional assay.
Assay [2] has as its target S(590), N-terminal 590 amino acids of the SARS-CoV S protein (SARS-CoV, UniProt P59594 15-590). Put plainly: FACS; inhibition of myc-tagged S(590) binding to Vero E6 cells. For orientation: A flow cytometer gives signals particle by particle.
Assay [3] addresses S(1255), full length S protein with transmembrane and cytoplasmic domains, on transfected HEK 293 cells (SARS-CoV, UniProt P59594 15-1190). Kind of assay: FACS on HEK 293 cells transfected with S(1255); given as ED50.
Assay [4] concerns the target T1, S(130), amino acids 1-130 of the SARS-CoV S protein (SARS-CoV, UniProt P59594 15-130).
T1 sequence: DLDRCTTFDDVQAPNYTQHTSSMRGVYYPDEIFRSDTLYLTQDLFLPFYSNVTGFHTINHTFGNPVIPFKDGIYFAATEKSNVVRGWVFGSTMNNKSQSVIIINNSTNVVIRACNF
Kind of assay: immunoprecipitation from culture supernatant, Western blot with anti-His6.

Assay [5] addresses T2, S(150), amino acids 1-150 of the SARS-CoV S protein (SARS-CoV, UniProt P59594 15-150).
T2 sequence: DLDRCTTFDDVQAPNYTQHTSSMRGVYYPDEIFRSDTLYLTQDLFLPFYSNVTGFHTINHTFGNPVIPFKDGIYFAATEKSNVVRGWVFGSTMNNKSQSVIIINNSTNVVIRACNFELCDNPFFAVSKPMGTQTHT
The description is as above.

Assay [6] concerns the target T3, S(170), amino acids 1-170 of the SARS-CoV S protein (SARS-CoV, UniProt P59594 15-170).
T3 sequence: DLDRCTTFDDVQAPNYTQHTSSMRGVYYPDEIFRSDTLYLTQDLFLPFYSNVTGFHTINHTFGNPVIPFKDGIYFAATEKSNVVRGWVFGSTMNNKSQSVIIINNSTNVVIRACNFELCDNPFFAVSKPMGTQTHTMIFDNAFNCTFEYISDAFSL
Described as above.

Assay [7] concerns the target T4, S(269), amino acids 1-269 of the SARS-CoV S protein (SARS-CoV, UniProt P59594 15-269).
T4 sequence: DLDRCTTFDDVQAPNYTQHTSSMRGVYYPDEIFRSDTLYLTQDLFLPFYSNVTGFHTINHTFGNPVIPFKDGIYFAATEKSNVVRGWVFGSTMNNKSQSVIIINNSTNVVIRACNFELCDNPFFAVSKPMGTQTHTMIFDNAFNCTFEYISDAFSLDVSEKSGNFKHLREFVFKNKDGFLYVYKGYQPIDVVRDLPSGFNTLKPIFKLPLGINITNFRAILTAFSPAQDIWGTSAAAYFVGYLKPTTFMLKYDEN
The description is as above.

Assay [8] concerns the target S(470), amino acids 1-470 of the SARS-CoV S protein (SARS-CoV, UniProt P59594 15-470). The assay is described as above.
Assay [9] has as its target S(490), amino acids 1-490 of the SARS-CoV S protein (SARS-CoV, UniProt P59594 15-490). Described as above.

B1: human monoclonal antibody 201.2 (antibody, V domains shown)
VH: EVQLVQSGGGLVHPGGSLRLSCAGSGFTFSSYDMHWVRQAPGKGLEWVSVVGTGDGTYYADSVKGRFTISRDNAKNSLYLQMNSLRAEDMAVYYCARDQWWGSDYWGQGTLVTVSS
VL: EIVLTQSPATLSLSPGERATLSCRASQSVSSYLAWYQQKPGQAPRLLIYDASNRATGIPARFSGSGSGTDFTLTISSLEPEDFAVYYCQQRSNWPLTFGGGTKVEIK
notes: also called 508-201; 7-508-201
As for B1, the “Viral Neut. in vitro (IC50, nM)” value in assay [1] was found to be 0.7 nM. This molecule also showed an IC50 in [2] of 2 nM. The EC50 in [3] was found to be 6 nM. Besides, the binding result in assay [4], in assay [5], in [6], in [7], in [8] and in [9] was “no binding” in each case.

By IC50 is commonly meant the midpoint of a concentration-inhibition curve. The low end stands for higher potency, the high end for lower potency. What is called EC50 is the concentration at which the effect is half-maximal.
